1 substance from PMC12048173 can be followed below.

This assay addresses Full-length Stigmatella aurantiaca bacteriophytochrome 2 (SaBphP2), Pr state (Stigmatella aurantiaca). Kind of assay: cryo-EM structure; single-particle cryo-EM, Spotiton nanowire grid, 0.4 mg/ml, pre-illuminated with 740 nm light (pure Pr state); global resolution 6.0 Å; subunits fitted as rigid units, not refined.

Take “Full-length Stigmatella aurantiaca bacteriophytochrome 2 (SaBphP2), Pr state (natural protein)”: the stoichiometry N (in general, a count of units in the complex or per binding partner) was 2.
